We go through 3 molecules from paper PMC5663490 (PLoS ONE, 2017).

The Kd is a measure of binding affinity in units of concentration. The stoichiometry N is a count of units in the complex or per binding partner.

One experiment concerns the target HMunc18c (mouse) (UniProt Q60770). As to the kind of experiment: ITC; Munc18 proteins (HMunc18c or Munc18a-His) at 10–20 μM with Syntaxin partners at 100–550 μM; 298 K; 25 mM HEPES pH 8, 200 mM NaCl, 2 mM β-mercaptoethanol, 10% glycerol; 16 injections of 2.45 μL; which partner was in the syringe is not said. For orientation: ITC needs no label: the signal is the heat of the interaction.

A further experiment addresses T1, HMunc18c (mouse, UniProt Q60770 1-592).
T1 construct: pQE30 vector; also called Munc18-3; source: E. coli BL21 with GroEL/ES chaperones, purified (Ni2+ resin, SEC, MonoS if required); not shown: His6, N-terminal, kept
T1 sequence (looked up): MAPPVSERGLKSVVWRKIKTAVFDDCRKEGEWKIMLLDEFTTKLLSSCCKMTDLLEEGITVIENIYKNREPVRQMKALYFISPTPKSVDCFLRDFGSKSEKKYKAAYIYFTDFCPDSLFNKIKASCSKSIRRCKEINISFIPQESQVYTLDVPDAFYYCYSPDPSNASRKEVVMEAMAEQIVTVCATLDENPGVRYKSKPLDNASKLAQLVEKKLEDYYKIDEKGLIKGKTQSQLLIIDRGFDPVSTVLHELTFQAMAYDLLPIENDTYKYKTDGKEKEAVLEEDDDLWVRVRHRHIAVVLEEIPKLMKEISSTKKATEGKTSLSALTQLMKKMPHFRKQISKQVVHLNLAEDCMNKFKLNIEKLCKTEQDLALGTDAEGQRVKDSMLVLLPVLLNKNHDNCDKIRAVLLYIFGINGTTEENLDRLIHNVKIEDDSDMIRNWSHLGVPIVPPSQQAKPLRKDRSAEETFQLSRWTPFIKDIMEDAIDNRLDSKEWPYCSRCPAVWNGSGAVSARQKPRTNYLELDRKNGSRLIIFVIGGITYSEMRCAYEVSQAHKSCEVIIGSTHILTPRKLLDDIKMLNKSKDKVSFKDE
The description is as above. Conditions: both partners purified.

In the experiment with HMunc18c (mouse), “Sx1_(1-261)-His (from UniProt P32851 1-261) (domain or fragment)” returned a Kd of 80 nM, a dH of -15.2 kcal/mol and a stoichiometry N of 1.03.

In the experiment with HMunc18c (mouse), “ΔNSx1_(25-261)-His (from UniProt P32851 25-261) (domain or fragment)” had a Kd of 730000 nM, a dH of -4.44 kcal/mol and a stoichiometry N of 1.07.

B1: Sx4_(1-275)-His (domain or fragment, rat, UniProt Q08850 1-275, looked up)
chain: MRDRTHELRQGDNISDDEDEVRVALVVHSGAARLSSPDDEFFQKVQTIRQTMAKLESKVRELEKQQVTILATPLPEESMKQGLQNLREEIKQLGREVRAQLKAIEPQKEEADENYNSVNTRMKKTQHGVLSQQFVELINKSNSMQSEYREKNVERIRRQLKITNAGMVSDEELEQMLDSGQSEVFVSNILKDTQVTRQALNEISARHSEIQQLERSIRELHEIFTFLATEVEMQGEMINRIEKNILSSADYVERGQEHVKIALENQKKARKKKVM
notes: cloned into pET20b; also called Syntaxin4; not shown: His6, C-terminal, kept
In the case of B1, in the experiment with HMunc18c, the Kd is 100 nM, the dH is -14.1 kcal/mol and the “stoichiometry N” value was 1.03.
